Where no end group is shown, it is not given here.
Columns and labels:
Experiment in all cases: cell-based or functional assay
PTGFR = PTGFR (UniProt P43088 1-359)
DRD1 = DRD1 (UniProt P21728 1-446)
PTGER3 = target: T1, PTGER3 (UniProt P43115 1-390, limits assumed)
T1 sequence (looked up): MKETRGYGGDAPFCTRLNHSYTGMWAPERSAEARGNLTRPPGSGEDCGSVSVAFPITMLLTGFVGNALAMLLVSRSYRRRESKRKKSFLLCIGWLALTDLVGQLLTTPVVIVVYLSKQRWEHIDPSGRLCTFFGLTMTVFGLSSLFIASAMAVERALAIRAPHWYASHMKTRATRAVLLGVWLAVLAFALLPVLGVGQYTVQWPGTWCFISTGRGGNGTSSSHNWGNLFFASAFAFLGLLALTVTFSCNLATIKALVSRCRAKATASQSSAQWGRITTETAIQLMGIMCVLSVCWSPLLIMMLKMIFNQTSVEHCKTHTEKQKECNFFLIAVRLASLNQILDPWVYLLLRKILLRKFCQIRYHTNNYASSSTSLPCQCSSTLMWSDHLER

PPYR1 = PPYR1 (UniProt P50391 1-375)
CCR3 = target: T2, CCR3 (UniProt P51677 1-355)
T2 sequence (looked up): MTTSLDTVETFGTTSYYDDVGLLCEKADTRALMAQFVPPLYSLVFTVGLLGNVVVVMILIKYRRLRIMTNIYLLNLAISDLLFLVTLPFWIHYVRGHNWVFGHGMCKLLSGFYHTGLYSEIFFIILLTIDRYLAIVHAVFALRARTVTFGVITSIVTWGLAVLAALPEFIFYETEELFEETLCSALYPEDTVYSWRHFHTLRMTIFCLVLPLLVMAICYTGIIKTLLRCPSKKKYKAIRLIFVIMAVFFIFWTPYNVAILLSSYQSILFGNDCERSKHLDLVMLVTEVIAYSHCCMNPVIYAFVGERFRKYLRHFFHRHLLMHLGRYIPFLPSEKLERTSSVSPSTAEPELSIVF

PTGIR = PTGIR (UniProt P43119 1-386, limits assumed)
ADCYAP1R1 = target: T3, ADCYAP1R1 (UniProt P41586 21-468, limits assumed)
T3 sequence (looked up): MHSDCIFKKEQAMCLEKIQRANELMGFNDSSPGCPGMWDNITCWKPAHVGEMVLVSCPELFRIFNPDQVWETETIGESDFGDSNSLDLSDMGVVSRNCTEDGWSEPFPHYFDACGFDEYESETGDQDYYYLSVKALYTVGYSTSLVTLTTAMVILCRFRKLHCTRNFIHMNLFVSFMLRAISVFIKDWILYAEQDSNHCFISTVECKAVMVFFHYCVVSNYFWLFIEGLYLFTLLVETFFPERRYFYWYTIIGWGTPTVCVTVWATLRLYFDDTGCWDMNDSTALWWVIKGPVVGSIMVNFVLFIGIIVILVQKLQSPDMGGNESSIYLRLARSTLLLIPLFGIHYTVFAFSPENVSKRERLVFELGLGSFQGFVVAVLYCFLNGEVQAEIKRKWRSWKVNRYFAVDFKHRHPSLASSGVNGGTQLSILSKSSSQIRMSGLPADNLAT

F2RL3 = target: T4, F2RL3 (UniProt Q96RI0 18-385, limits assumed)
T4 sequence (looked up): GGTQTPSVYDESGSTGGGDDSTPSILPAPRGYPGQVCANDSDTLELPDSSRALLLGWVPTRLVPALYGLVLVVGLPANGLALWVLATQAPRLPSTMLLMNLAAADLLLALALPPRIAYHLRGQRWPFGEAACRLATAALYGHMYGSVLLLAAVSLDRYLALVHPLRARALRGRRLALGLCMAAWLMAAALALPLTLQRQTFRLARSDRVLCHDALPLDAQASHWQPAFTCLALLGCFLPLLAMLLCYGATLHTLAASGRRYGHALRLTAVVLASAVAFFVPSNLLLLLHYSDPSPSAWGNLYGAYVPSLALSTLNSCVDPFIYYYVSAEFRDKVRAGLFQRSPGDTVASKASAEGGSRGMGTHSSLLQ

CCR9 = target: T5, CCR9 (UniProt P51686 1-369, limits assumed)
T5 sequence (looked up): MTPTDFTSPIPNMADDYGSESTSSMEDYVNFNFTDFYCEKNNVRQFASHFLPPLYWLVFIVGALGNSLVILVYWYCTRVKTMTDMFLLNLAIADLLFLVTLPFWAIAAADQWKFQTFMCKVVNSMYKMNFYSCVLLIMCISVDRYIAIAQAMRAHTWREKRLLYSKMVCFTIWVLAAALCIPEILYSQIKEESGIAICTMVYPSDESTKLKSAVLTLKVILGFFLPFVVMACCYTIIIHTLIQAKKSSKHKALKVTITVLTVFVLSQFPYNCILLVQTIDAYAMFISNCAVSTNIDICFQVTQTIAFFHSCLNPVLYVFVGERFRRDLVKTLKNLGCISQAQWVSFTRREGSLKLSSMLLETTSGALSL

CHRM4 = target: T6, CHRM4 (UniProt P08173 1-479)
T6 sequence (looked up): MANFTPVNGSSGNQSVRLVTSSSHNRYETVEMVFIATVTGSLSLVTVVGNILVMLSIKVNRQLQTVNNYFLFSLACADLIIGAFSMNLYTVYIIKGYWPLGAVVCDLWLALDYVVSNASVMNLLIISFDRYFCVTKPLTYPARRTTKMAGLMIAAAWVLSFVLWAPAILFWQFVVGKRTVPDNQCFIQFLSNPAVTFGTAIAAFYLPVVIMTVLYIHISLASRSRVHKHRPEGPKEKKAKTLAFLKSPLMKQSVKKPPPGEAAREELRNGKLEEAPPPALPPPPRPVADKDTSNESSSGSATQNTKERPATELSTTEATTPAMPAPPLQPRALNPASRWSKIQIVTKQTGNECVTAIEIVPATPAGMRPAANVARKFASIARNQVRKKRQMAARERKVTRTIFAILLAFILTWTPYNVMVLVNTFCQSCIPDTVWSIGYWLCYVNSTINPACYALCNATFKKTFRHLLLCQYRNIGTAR

CXCR4 = CXCR4 (UniProt P61073 1-352)
Chain of CXCR4 (P61073 whole entry): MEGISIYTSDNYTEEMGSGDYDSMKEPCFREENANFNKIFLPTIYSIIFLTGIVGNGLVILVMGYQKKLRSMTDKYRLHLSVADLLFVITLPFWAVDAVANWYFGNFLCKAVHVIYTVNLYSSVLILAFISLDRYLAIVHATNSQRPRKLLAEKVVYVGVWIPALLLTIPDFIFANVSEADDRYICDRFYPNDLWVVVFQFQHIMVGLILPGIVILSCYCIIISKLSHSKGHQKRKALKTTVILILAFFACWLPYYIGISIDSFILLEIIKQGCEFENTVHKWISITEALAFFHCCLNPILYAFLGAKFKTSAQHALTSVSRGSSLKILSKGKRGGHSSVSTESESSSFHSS

Chain of PPYR1 (P50391 whole entry): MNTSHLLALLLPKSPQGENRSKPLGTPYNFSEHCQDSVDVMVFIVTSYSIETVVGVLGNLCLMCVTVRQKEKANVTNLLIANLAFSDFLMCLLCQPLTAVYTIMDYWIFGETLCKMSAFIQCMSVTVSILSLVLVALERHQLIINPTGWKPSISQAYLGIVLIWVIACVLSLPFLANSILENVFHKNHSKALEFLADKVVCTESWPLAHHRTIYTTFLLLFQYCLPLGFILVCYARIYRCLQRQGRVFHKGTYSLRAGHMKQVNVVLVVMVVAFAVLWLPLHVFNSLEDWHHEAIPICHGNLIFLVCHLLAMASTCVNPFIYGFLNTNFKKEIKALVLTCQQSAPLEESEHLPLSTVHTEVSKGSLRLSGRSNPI
Chain of PTGFR (P43088 whole entry): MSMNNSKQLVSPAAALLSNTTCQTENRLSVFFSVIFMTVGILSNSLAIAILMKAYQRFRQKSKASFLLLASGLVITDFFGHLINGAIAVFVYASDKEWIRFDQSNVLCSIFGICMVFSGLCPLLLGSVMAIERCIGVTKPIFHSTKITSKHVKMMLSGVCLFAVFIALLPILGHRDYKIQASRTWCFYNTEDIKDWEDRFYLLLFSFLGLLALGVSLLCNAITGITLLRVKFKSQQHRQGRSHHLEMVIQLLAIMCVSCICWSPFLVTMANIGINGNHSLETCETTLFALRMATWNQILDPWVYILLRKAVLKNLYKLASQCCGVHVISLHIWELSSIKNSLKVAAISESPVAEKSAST
Chain of PTGIR (P43119 whole entry): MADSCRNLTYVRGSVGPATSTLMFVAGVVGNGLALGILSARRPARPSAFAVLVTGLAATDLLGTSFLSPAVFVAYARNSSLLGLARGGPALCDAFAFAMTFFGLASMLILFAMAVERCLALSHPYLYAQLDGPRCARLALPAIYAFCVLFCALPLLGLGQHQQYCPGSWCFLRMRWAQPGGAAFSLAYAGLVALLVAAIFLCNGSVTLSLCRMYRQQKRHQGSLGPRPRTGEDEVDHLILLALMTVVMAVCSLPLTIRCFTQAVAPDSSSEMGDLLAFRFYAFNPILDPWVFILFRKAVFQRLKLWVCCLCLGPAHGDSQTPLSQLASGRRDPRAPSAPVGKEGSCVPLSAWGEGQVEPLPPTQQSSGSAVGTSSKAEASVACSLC
Chain of DRD1 (P21728 whole entry): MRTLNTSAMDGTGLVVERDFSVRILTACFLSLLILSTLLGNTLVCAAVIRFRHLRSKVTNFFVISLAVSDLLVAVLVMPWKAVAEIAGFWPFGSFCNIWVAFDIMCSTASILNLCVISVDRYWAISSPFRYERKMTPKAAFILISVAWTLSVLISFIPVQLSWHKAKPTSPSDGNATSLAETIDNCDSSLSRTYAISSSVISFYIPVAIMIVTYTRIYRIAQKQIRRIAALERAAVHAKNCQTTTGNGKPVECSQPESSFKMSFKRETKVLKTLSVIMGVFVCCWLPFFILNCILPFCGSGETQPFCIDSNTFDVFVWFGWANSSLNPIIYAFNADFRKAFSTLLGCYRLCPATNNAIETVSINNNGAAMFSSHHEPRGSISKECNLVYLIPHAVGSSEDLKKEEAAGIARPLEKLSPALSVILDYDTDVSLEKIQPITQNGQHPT

QATVGDVNTDRPGLLDLK (also: synthesised on Rink amide resin, C-terminal amide not given here outright) [octadecaneuropeptide (ODN)]
% Activity, arrestin, antagonist mode, 2.5 uM (PTGFR): -8.4% | % Activity, arrestin, antagonist mode, 2.5 uM (DRD1): 5.7% | % Activity, arrestin, antagonist mode, 2.5 uM (PTGER3): -10% | % Activity, arrestin, antagonist mode, 2.5 uM (PPYR1): -11.4% | % Activity, arrestin, antagonist mode, 2.5 uM (CCR3): -5.8% | % Activity, arrestin, antagonist mode, 2.5 uM (PTGIR): -20% | % Activity, arrestin, antagonist mode, 2.5 uM (ADCYAP1R1): 0.9% | % Activity, arrestin, antagonist mode, 2.5 uM (F2RL3): -25.9% | % Activity, arrestin, antagonist mode, 2.5 uM (CCR9): -10.1% | % Activity, arrestin, antagonist mode, 2.5 uM (CHRM4): 5.8% | % Activity, arrestin, antagonist mode, 2.5 uM (CXCR4): -28.5%

From patent US20260184748A1 (University of Pennsylvania, published 2026)
